Our source for the Kd values is PMC2768541 (Journal of molecular biology, 2009).

One assay concerns the target T1, S100A1 (Rattus norvegicus, UniProt P35467).
T1 sequence (P35467 2-94 limits assumed): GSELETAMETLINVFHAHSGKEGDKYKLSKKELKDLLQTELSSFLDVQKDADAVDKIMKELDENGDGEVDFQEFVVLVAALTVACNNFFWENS
Conditions: read-out: KD of S100A1 for RyRP12; ref [36]; [47]; cited from earlier work.

The next assay concerns the target RyRP12 RyRP12 (UniProt P21817). Conditions: cited from earlier work.
The target of assay [1] is TRTK12 (CapZ peptide) TRTK12 (Homo sapiens) (UniProt P52907). Conditions: cited from earlier work.
Assay [2] concerns the target T2, TRTK12 (CapZ alpha subunit peptide) (not fully specified).
T2 chain: Ac-TRTKIDWNKILS-NH2

The target of assay [3] is T3, TAMRA-TRTK12 (CapZ alpha subunit peptide) (not fully specified).
T3 chain: {TAMRA}-TRTKIDWNKILS-NH2
Nature of the assay: fluorescence anisotropy. On the technique in general: Fluorescence polarisation rises when a labelled molecule tumbles more slowly, as on binding a larger partner.

In general, Kd refers to the equilibrium constant for the complex coming apart. For KKAVWHKLLSKQ [RyRP12], the Kd with S100A1 was 8 µM.
On to S100A1 (from UniProt P35467), for which the Kd with RyRP12 RyRP12 was 8 µM.
Consider S100B (from UniProt P04631), for which the Kd in assay [1] was 7 µM.

B1: S100A1 (protein)
chain: MGSELETAMETLINVFHAHSGKEGDKYKLSKKELKDLLQTELSSFLDVQKDADAVDKIMKELDENGDGEVDFQEFVVLVAALTVACNNFFWENS
For the molecule B1, the Kd was determined as 23 µM in assay [2] and 1 µM in assay [3].
